T1: Human CD39 on CHOK1-huCD39-10B6 cells overexpressing CD39 (human, UniProt P49961 1-510)
T1 sequence (looked up): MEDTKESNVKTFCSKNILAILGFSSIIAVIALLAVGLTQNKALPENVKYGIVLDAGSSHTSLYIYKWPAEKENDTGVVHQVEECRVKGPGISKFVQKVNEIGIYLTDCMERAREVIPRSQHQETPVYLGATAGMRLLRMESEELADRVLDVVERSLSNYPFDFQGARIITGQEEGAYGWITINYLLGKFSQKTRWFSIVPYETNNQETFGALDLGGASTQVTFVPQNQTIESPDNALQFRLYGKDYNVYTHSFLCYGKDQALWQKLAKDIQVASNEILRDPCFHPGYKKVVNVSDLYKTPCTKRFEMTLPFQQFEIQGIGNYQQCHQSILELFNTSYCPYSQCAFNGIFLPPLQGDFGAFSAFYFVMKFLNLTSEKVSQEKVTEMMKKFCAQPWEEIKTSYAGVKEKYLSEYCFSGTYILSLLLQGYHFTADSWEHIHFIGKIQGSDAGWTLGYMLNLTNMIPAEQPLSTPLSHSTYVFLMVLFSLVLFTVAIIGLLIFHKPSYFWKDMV

T2: Human CD39 antigen (human, UniProt P49961 38-478)
T2 construct: Antigen used as analyte in SPR; also called ENTPD1
T2 sequence (looked up): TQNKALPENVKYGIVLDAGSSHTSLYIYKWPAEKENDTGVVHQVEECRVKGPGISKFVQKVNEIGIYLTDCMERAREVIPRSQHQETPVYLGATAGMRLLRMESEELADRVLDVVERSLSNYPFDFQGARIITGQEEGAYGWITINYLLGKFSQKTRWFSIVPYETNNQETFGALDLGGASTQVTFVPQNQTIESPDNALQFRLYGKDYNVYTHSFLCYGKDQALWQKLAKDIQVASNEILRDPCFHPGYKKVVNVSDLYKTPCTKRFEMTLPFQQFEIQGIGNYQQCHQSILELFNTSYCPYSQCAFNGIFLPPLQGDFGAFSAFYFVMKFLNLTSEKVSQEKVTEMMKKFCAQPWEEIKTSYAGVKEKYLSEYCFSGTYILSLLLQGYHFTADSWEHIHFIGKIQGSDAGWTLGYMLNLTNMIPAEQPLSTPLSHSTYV

T3: Human CD73 antigen (human, UniProt P21589 27-547, limits assumed)
T3 construct: Antigen used as analyte in SPR; also called NT5E
T3 sequence (looked up): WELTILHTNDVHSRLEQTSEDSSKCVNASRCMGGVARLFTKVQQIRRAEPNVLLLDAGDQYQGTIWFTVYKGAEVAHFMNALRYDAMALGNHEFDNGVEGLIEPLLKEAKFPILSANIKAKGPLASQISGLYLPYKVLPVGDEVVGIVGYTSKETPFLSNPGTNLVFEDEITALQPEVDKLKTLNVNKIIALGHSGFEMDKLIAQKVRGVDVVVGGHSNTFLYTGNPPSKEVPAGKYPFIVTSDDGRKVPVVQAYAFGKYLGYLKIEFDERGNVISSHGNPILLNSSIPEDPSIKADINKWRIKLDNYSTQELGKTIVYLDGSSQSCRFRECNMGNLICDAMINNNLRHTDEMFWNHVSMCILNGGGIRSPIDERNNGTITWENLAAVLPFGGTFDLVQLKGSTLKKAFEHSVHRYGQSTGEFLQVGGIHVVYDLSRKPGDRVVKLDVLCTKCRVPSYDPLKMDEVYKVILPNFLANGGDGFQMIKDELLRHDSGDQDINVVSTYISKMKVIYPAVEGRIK

T4: Human CD73 on CHOK1-huCD73-3F4 cells overexpressing CD73 (human, UniProt P21589 27-549)
T4 sequence (looked up): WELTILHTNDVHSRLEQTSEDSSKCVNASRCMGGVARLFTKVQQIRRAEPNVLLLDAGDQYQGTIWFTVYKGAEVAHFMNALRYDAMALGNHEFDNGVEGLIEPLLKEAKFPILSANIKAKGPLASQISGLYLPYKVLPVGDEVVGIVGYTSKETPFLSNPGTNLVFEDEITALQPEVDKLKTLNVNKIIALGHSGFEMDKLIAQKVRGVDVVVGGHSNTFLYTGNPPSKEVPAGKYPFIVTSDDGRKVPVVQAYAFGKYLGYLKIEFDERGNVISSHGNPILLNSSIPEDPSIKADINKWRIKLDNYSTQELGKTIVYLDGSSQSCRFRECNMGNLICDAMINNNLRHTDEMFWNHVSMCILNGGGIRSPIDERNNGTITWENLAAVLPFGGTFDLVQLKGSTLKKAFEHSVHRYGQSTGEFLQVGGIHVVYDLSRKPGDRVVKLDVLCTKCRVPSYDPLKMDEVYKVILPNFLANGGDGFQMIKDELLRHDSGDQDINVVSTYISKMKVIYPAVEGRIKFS


Experiments:
[1] = biological target: T1, Human CD39 on CHOK1-huCD39-10B6 cells …; experiment: cell-based or functional assay
Human CD39 antigen = biological target: T2, Human CD39 antigen; experiment: SPR (Biacore 8K), antibody captured on anti-human capture CM5 chip, antigen as analyte, 1:1 model
Experimental: (§1) An Anti-Human Capture-CM5 chip (GE, #BR-1005-30) was prepared using coupling methods of a Human Antibody Capture Kit (GE, #BR-1008-39) and an amino coupling kit (GE, BR-1000-50). The chip was equilibrated at room temperature for 20-30 mins and loaded into a Biacore 8K instrument. The antigen and antibody were diluted to an experimental working concentration using an equilibration buffer. The antigens were diluted with the equilibrium buffer to 50 nM, and then diluted three-fold for seven concentration gradients, and two zero concentrations (i.e., the equilibrium buffer) and one repeat concentration (typically the lowest concentration repeat) were set. Experimental analysis was performed on 10 antigen concentrations (2 zero concentrations, 7 gradient concentrations, and 1 repeated concentration) in a cyclic manner according to an order of antibody, antigen, and regeneration. The antigen injection flow rate was 30 μL/min, the binding time was 120 s, and the dissociation time was 600 s. Following the analysis, the data was analyzed using the corresponding analysis program to confirm that there was no obvious reference binding. Using Kinetics and a 1:1 binding model, the data was fit to obtain the kinetic related parameters Ka, Kd, and KD values of the bispecific antibodies and parental control antibodies.

Human CD73 antigen = biological target: T3, Human CD73 antigen; experiment: as above
Experimental: as §1

[2] = biological target: T4, Human CD73 on CHOK1-huCD73-3F4 cells …; experiment: cell-based or functional assay
[3] = biological target: soluble recombinant protein CD73; experiment: cell-based or functional assay
Sequence of soluble recombinant protein CD73 (P21589 whole entry): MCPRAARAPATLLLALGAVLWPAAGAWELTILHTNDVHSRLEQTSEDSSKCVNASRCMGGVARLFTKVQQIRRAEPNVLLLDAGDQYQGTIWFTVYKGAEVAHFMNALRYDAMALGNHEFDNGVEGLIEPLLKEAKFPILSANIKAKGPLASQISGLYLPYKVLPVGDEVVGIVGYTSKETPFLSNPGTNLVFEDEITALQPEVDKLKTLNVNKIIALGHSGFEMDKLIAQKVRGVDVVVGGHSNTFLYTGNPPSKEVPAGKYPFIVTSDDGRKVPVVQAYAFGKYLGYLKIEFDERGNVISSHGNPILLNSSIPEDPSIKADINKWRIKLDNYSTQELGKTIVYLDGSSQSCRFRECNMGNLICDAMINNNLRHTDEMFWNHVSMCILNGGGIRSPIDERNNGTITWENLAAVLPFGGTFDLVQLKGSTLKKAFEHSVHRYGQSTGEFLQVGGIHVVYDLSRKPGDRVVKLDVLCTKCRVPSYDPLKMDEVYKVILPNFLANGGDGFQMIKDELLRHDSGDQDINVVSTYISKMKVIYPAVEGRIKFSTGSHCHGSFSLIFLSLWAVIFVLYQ

Row | EC50 (µg/mL), inhibition of enzyme activity of soluble CD73 protein (CellTiter Glo) [3] | Binder | EC50 (µg/mL), inhibition of CD39 ATPase activity on CHOK1-huCD39-10B6 cells (CellTiter Glo) [1] | Kd (Human CD39 antigen) | koff (Human CD39 antigen) | kon (Human CD39 antigen) | Kd (Human CD73 antigen) | koff (Human CD73 antigen) | kon (Human CD73 antigen) | EC50 (µg/mL), inhibition of enzyme activity of membrane CD73 on CHOK1-huCD73-3F4 cells (CellTiter Glo) [2]
1 |  | CD39/CD73 bispecific antibody 700035 (CD39-VHH-CD73-IgG) (bispecific antibody) heavy: not shown light: DIQMTQSPSSMSASVGDRVTITCKASQNVRTAVVWYQQKPGKAPKALIYLASNRHTGVPDRFSGSGSGTDFTLTISSLQPEDFATYFCLQHWNYPYTFGQGTKLEIKRTVAAPSVFIFPPSDEQLKSGTASVVCLLNNFYPREAKVQWKVDNALQSGNSQESVTEQDSKDSTYSLSSTLTLSKADYEKHKVYACEVTHQGLSSPVTKSFNRGEC | 0.208 µg/mL | 0.0708 nM | 9.28e-05 s⁻¹ | 1.31e+06 M⁻¹ s⁻¹ | 0.341 nM | 0.000319 s⁻¹ | 935000 M⁻¹ s⁻¹ | 0.615 µg/mL
2 | 1.85 µg/mL | CD39/CD73 bispecific antibody 700038 (CD39-VHH-CD73-IgG) (bispecific antibody) heavy: not shown light: DIQMTQSPSSLSASVGDRVTITCRASQDVGTAEAWYQQKPGKAPKLLIYWASTRHTGVPSRFSGSGSGTDFTLTISSLQPEDFATYYCQQYSSYPLTFGQGTKLEIKRTVAAPSVFIFPPSDEQLKSGTASVVCLLNNFYPREAKVQWKVDNALQSGNSQESVTEQDSKDSTYSLSSTLTLSKADYEKHKVYACEVTHQGLSSPVTKSFNRGEC | 0.187 µg/mL | 0.0918 nM | 9.54e-05 s⁻¹ | 1.04e+06 M⁻¹ s⁻¹ | 0.425 nM | 0.000249 s⁻¹ | 587000 M⁻¹ s⁻¹ | 
